From the nanobody polyreactivity screen of Harvey et al. (2022)

Experiment: yeast display, Sf9 membrane polyspecificity reagent, FACS + sequencing; frameworks hold sequencing errors
In short: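 Galactose induction of a Saccharomyces cerevisiae BJ5465 synthetic nanobody display library ran 36–48 hours. The cells were then stained for 1 hour at 4 °C with 10% biotinylated, detergent-solubilized Sf9 membrane reagent, pulled down on streptavidin microbeads and FACS-sorted into low and high (top ~1%) gates on expression and reagent-binding fluorescence. Labels for polyreactivity follow the gate of origin.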

Sequence | polyreactivity (PSR sort gate)
QVQLQESGGGLVHAGGILRLSCAASGTISFINMKGWYGQAPGRERELVASINFGANTHYADSVKGRFTIRRDNAKNTVYLQMNSLKPEDTAVSYCAARKVRFGVDYWGQGTQVTVSS | high polyreactivity
QVQLQESGGGLVKAGGSLRLSCAASGNISPSDAMGWYRQAPGEERDLVASNAYSAITYYADGVKGRYTISRDNAKNTVYLQMNSLKPEDTEVYYCAVYQFTYPVFPAYWGQGTQVTVSS | low polyreactivity
QVQLQESGGGLVLAGGSLRLSCAASGSITAQAYMGWDRQAPGKEREHVAGINYGDNTNYADSVKGRFTISRDNEHRVSADEQPETGRYRGVLLRGFLEIFYYYIFWGQGTQVTVSS | high polyreactivity
QVQLQESGGGLVLAGGSLRLSCSASGNISVYGSMGWYRQAPGKVREFVATIDPGTNTNYADSVKDRFTISRDNAKNTVYLQMNSLKPEDTAVYYCAVEAGSDWPYRYWGQGTQVTVSS | low polyreactivity
QVQLQESGGGLVLAGGSMRLSCAASGSISAHAYMGWERQAPGKEREHVAGINYGDNTNYADSVKGRFTISRDNEHRVSADEQPETGRYRGVLLRGFLELFYYYIYWGQGTQVTVSS | high polyreactivity
QVQLQESGGGLVQACGSLRLSCAASGYIFSHQYMGWYRQAPGKERELVASISPGATTNYADCVKGRFTISRDNAKNTVYLQMNSLKPEDTAVYYYAVYQILDRRLSYWGQGTQVTVSC | high polyreactivity
QVQLQESGGGLVQACGSLRLSCAASGYIFSHQYMGWYRQAPGKERELVASISPGATTNYADSVKGRFTISRDNAKNTVFLQMNSLKPEDTAVYYYAVYQMLDRRLSYWGQGTQVTVSC | high polyreactivity
QVQLQESGGGLVQACGSQRLSCAASGSISEGQDMGWYRRAPGKESEFVAGIAPCATTYYADSVKGRFTISRDNAKNSVYLQMNSLKPEDTAVYYCAARSVTETDHDYWGQCTQVTVSS | low polyreactivity
QVQLQESGGGLVQADGSLRLSCAASGSIFGYYYMGWYRQAPGKDRELVATINICGITNYADSVKGRFTISRDNAKNTVYLQMNSLKPDDTAVYYCAADEYAQRDLGYWGQGTQVTVSR | low polyreactivity
QVQLQESGGGLVQAGDSQRLSCAASGNIFRFTDMGWYRQAPGKERELVAAINAGSTTYYADSVKGRFTISRDNAKNTVYLQMNSLKPEDTAVYYCAVYYLGSGTFGYWGQGAQVTVSS | high polyreactivity
QVQLQESGGGLVQAGGCLRLSCAASGTIFDPDYMGWYHQAPGKERELVASISLGRITYYADSVKGRFTINRDNAKNTVYLQMNSLKPEDTAVYYCAVRVETIYYYSYWGQGTQVTVSS | high polyreactivity
QVQLQESGGGLVQAGGDLRLSCAASGTIFRDYIMGWYRQAPGKEREFVAGIDRGANTNYADSVKGRFTISRDNAKNTVYLQMNSLKPEDTAVYYCAADWWRVDMDYWGQGTQVTVSS | low polyreactivity
QVQLQESGGGLVQAGGGLRLSCAESGTISGPHVMRWYRQATGKEREFVAAINVGAYTYYADNVKGRFTISRDNEKNTVYLQMNSLKPEDTAFYYCAAFARYSRRYYYWGQGTQVTVSS | low polyreactivity
QVQLQESGGGLVQAGGILRLSCAACGNIFPSAVMGWYRQALGKEREFVATINSGSNTYYADSVNGRFSISRDNAKHTVYLHRNSLKLQDTAVYYCAAYFKLPAWHTSWGQGTQVSVSS | low polyreactivity
QVQLQESGGGLVQAGGSLCLSCAASGTIFFDGDMGWYRQAPGKEREFVAAINPGGSAYYADSVKGRLPLAAITHSVYLQMNSLKPEDTAVYYCAAKLFDVYGYYYWGQGTHVTVSS | low polyreactivity
QVQLQESGGGLVQAGGSLCLSCAASGTNFFDGHMGWYRQAPGKEREFVAAINPGGSAYYADSLKGRLPLAAITHTVYLQMNSLKPEDTAVYYCAAILFDVYGYYYWGQGTHVTVSS | low polyreactivity
QVQLQESGGGLVQAGGSLLSCAASGTISYYREMGSYRQAPGKERELVAGIGVGTITYYADSVKGRFTISRDNAKKTVFLQMNSLNPEDTAVYFCGDHIDGNDSHAYWGQGTQVTVSS | low polyreactivity
QVQLQESGGGLVQAGGSLRLICAASCTISQEDWMGWYRQAPGKEREFVAAIGLGSNTNYADSLKGRFTISRDNAKITVYLQMNSLKPEDTAVYYCNNDSTNNPFQYDYWGQGTQVTVSS | low polyreactivity
QVQLQESGGGLVQAGGSLRLRCAASRNISGSSDLGWYHQAPGKEREFVASMTSGGTTYYADSVKGRFTISRDNAKISEYLQMNSLKPEDTAVYYCAVGDPADAEFGYWGQGTQVTVRS | low polyreactivity
QVQLQESGGGLVQAGGSLRLSCAAIGTIFASQHMGWYRQAPGKERELVASIAKGGNTYYADSVKGRFTISRGNAKNTEYLQMNSLKPEDTAVYYCAAEIDLPYYYGSADDDYWGQGTQVTVSS | high polyreactivity
QVQLQESGGGLVQAGGSLRLSCAASCTISQEDWIGWYRQAPGKEREFVAAIGLGSNTNYADSLKGRFTISRDNAKNTVYLQMNSLKPEDTAVYYCAVSVWQYSDHVYRGQGTQVTVSS | low polyreactivity
QVQLQESGGGLVQAGGSLRLSCAASGDILEADDMGWYRQAPGKERELVASITDGGSTNCADSMKGRSTICRDNAKITVYVQMNRLKLEDTAVYYCAGIAYPDVPTYFDYDSDYFYWGQGTLVTVSS | high polyreactivity

Sequence | polyreactivity (PSR sort gate)
QVQLQESGGGLVQAGGSLRLSCAASGIIFDNPNMGWYRQAPGKQRELVATINSGATTNYADSVKGRFTISRDNAKNTVYLLMNSLIPEDTAVYYCAVDLSPTYFYYWGQGTQVTVSS | high polyreactivity
QVQLQESGGGLVQAGGSLRLSCAASGNIFEADIMGWYHQAHGKERELVASITDGGSTNYADSVKGRFNIKRDNAKNIVYLQMNSLKPEDTAVYYCAAIAYPDIATYFDYDSDYFYWGQGTQVTVSS | high polyreactivity
QVQLQESGGGLVQAGGSLRLSCAASGNIFLGDTMGWYRQAPGKEREFVAGIARGGNPYYADSVKGRFTISRNNANNTVYLQKNSLKPEDTAVHYCAVQRSHASDYNYWGQGTQVTVSS | low polyreactivity
QVQLQESGGGLVQAGGSLRLSCAASGNISVTGFMGWYRQAPGKERELVASIGIGATTYYADSVKGRFSISRDNAKNTVYLQMNSLKPEDTAVYYCAARYLYYAYSYWGQGTQVTVSS | low polyreactivity
QVQLQESGGGLVQAGGSLRLSCAASGNISVTGFMGWYRQAPGKERELVASIGIGGTTYYADSVKGRFSISRDNAKNTVYLKMNSLKQEDTSVYYCAARYLYYAYSYWGQGTQVTVSS | low polyreactivity
QVQLQESGGGLVQAGGSLRLSCAASGNISVTGFMGWYRQATGKERELVASIGIGGTTYYADSVKGRFSISRDNAKNTVYLQMNSLKPEDTAVYYCAARYLYYAYSYWGQGTQVTVSS | low polyreactivity
QVQLQESGGGLVQAGGSLRLSCAASGNIVDADIMGWYRQEPGKERELVASITDGGSTNYADSVKGRFTISRDNAKNTVYLQMNSLKPEDTAVYYCAAIAYPDIPTYFDYDSEYFYWGQGTQVTVSS | low polyreactivity
QVQLQESGGGLVQAGGSLRLSCAASGSIFADVQMGWYRQAPGKERELVASINFRGTTTYNADSVKGRITISRDNSKNTVYLQMSSLKPEDTAVYYCSVGRSEGGDYAYWGQGTHVTVSS | low polyreactivity
QVQLQESGGGLVQAGGSLRLSCAASGSIFHLHIKCWYRQAPGKERESVAAISYGTSTYYADRVKGRFTICRDNAKNTVYLQMNSPKPDDTAVYYCAALFLVSKHHHYWGEGTQVTVSS | low polyreactivity
QVQLQESGGGLVQAGGSLRLSCAASGSIFKVVDMGLYRQAPAKEREFVATIGEGGNTYYADSVKGRFTISRDNAKNTVYLQMNSLKTEDTAVYFYAVVLGTSYRYTYWGQGTKVTVSS | low polyreactivity
QVQLQESGGGLVQAGGSLRLSCAASGSIFKVVDMGLYRQEPAKEREFVATIGEGGNTYYADSVKGRFTISRDNAKNTVFLQMNSLKPEDTAVYFYAVVLGTSYRYTYWGQGTQVTVSS | low polyreactivity
QVQLQESGGGLVQAGGSLRLSCAASGSIFYEFYMGWYRQAPGKERELVAAIANGASTHYADSVKGRFTISRDNSNNTVYLQMSSLKQEDTAVYYCAVNTTSDIDYIYWGQGTQVNVSS | low polyreactivity
QVQLQESGGGLVQAGGSLRLSCAASGSILFSTLMGWSRQAPGKERELVATITTGTFTNYAGSVKGRFTISRDNAENTVYLQMNSLRPEDTAVYYSADYANHKAGFYYWGQGTQVTVSS | high polyreactivity
QVQLQESGGGLVQAGGSLRLSCAASGSISAVGAMGWYRQAPGKEREFAASVNWGTNTNYADSVKGRFTISRDNAKNTLYLQMNSLKPEDTAVYYCAVLPDWETRHEYWGHGTQVTVSS | low polyreactivity
QVQLQESGGGLVQAGGSLRLSCAASGSISGPHVMGWYRQAPGKEREFVAAINVGANTYYADNVKGRFTISRDNANNTVYLQMNSLKPEDTAVYYCAAVYYGDIGHEYWGQGTQVTVSC | low polyreactivity
QVQLQESGGGLVQAGGSLRLSCAASGSISRLDYMGWYRQASGKERELVAAIDNGRTTYYAESVKGRLTISRDNAKYTVYLQMNSLKPEDTAVYCCAAVRGRGGTHAYWGQGTQVTVSG | low polyreactivity
QVQLQESGGGLVQAGGSLRLSCAASGSISYPRTMGWYSQAPGQEREFVAGIGVGGNTYYAESVKGRFTISSDNAKNTVYLQMNSQKPEDTAVYYCNAEWYYPYYYSRMDYWGLGTQVTVSS | low polyreactivity
QVQLQESGGGLVQAGGSLRLSCAASGSIVVSVTMGWYRKAPGKESELVASIGRGSTTNHADSVKGRFTISRDNAKNIVDLLLNSLKPEDNAVYYCAALESYGKYHGYWGEGTQVTVSS | low polyreactivity
QVQLQESGGGLVQAGGSLRLSCAASGTIFRFRYMGWHRQAPGKERELVAGINGGTTTYYADSVIGRFTISRVNAKNTVYLQMKSLKPDDTAVYNCAAGASRLTYYDYWGQGTQVTVSS | low polyreactivity
QVQLQESGGGLVQAGGSLRLSCAASGTIFRISDMGSYRQAPGKEREFVAAITYGANTYYADSGKGRFTISRDNAKNTVSLQMNSLKPEDTAVYYCAVPPVKETILDYWGQGTQVTVSS | low polyreactivity
QVQLQESGGGLVQAGGSLRLSCAASGTISDSGLMGWYRQAPGKERELVAGISSGGITNYADSVKGRFTISRDNAKNTVYLQMNSLKPDDTAVYWGQGTQVTVSS | low polyreactivity
QVQLQESGGGLVQAGGSLRLSCAASGTISPLPAMGWYRQAPGKEREFVAGIDTGAITNYADSVKGRFTISRDNAKITVYLQMNSLKPEDTAVYYCAVFPAAYDYYERYYTYWGQGTQVTVSS | low polyreactivity
